In assay [1] the target is Islet amyloid polypeptide (IAPP), human (human) (UniProt P10997). The experiment in a line: FRET or BRET; diluted-FRET inside live INS-1 cells; 10 uM IAPP in the medium, equimolar ADM-116 added 3 h later (rescued condition); donor:acceptor:unlabelled 1:1:100; 24 h and 48 h. On the technique in general: In BRET a luciferase serves as donor, and the signal depends on an acceptor being close.

Assay [2] shares this target. The assay can be described thus: FRET or BRET; diluted-FRET inside live INS-1 cells; 10 uM IAPP, no ADM-116 (toxic condition); donor:acceptor:unlabelled 1:1:500; 48 h.
Assay [3] has the same target. The assay can be described thus: FRET or BRET; diluted-FRET by confocal imaging on GPMVs from INS-1 cells; 50 uM IAPP, 5 uM phospholipid, no ADM-116 (10:1:0); donor:acceptor:unlabelled 1:1:500; first 34 min (small sieve size leakage).
Assay [4] has the same target. The experiment in a line: FRET or BRET; diluted-FRET inside live INS-1 cells; 10 uM IAPP, no ADM-116 (toxic condition); donor:acceptor:unlabelled 1:1:500; 24 h.

Substance “Islet amyloid polypeptide (IAPP), human (from UniProt P10997 34-70)” yielded an FRETeff (single peak, rescued with ADM-116) in assay [1] of 0.6. In assay [2], this substance gave an FRETeff (peak at 48 h) of 0.62. In assay [3], this substance showed an FRETeff (peak 1 of 4, first 34 min) of 0.21; an FRETeff (peak 2 of 4, first 34 min) of 0.36; an FRETeff (peak 3 of 4, first 34 min) of 0.41; an FRETeff (peak 4 of 4, first 34 min) of 0.58. In assay [4], this substance returned an FRETeff (peak at 24 h) of 0.36.

(Values after paper PMC5882805.)
